The values below come from patent US9267129B2, “Compositions and methods for conferring herbicide resistance” (BEN-GURION UNIVERSITY OF THE NEGEV RESEARCH AND DEVELOPMENT …, priority 2011, dated 2016).

The nature of this series: AHAS catalytic activity, pyruvate dependence. In kind it is biochemical, Parietochloris incisa. Here is the method:
To overexpress the hexahistidine (6xHis)-tagged PiAHAS genes in E. coli strain JM109, plasmids pQE-WT and pQE-MUT were used. These plasmids were constructed by inserting the BamHI-SalI fragment containing the cloned PiAHAS wt and mutant genes into plasmid pQE30 (Qiagen, Hilden, Germany). These plasmids express PiAHAS fused at its N-terminus to the pQE30 6xHis leader. pQE-WT and pQE-MUT were transformed into E. coli for expression. The transformed cells were grown, IPTG induced, and harvested as described previously (Hill C et al. Purification of Escherichia coli acetohydroxyacid synthase isoenzyme II and reconstitution of active enzyme from its individual pure subunits. Biochem. J. 1997, 327, 891-898). Bacterial cells were disrupted by sonication in a binding buffer with 20 mM imidazol, 0.5 M sodium chloride, 50 mM sodium dihydrogen phosphate (pH 8.0), 20 μM FAD and 50 μl/g cells of protease inhibitor cocktail (Sigma-Aldrich, Israel). After 30 min of centrifugation at 20,000×g, the supernatant was loaded on a 1.5×8 cm column of Ni2+-nitrilotriacetatic acid-agarose (Qiagen) previously washed with the binding buffer. The column was then washed with 80 ml of the binding buffer, and the His-AHAS protein eluted with 0.4 M imidazol in the binding buffer. The fractions were dialyzed against 50 mM potassium phosphate buffer (pH 7.6), containing 20 μM FAD. The protein was concentrated for storage at −20 °C by dialysis against same buffer, containing 50% glycerol. The AHAS catalytic activity was determined as previously described (Bar-Ilan A et al. Binding and activation of thiamin diphosphate in acetohydroxyacid synthase. Biochemistry (N.Y.) 2001, 40, 11946-11954). The reactions were carried for 20 min at 37 °C in 0.1 M potassium phosphate buffer (pH 7.6), containing 10 mM magnesium chloride, 0.1 mM ThDP, 75 μM FAD, 5 mM EDTA, 1 mM DTT with 100 mM pyruvate as substrate, except where otherwise indicated. The activity is expressed in units (U) (1 U=1 μmol of acetolactate formed min^−1). Km for pyruvate and Ki for SMM were determined by varying the concentration of the factor in question. Protein concentration was determined by the dye-binding method of Bradford (Bradford MM. A rapid and sensitive method for the quantitation of microgram quantities of protein utilizing the principle of protein-dye binding. Anal. Biochem. 1976, 72, 248-254), with bovine serum albumin as standard. Km calculations were fit with the program “Sigma-Plot” to Michaelis-Menten equation. For Ki calculations, the lines were fit to equations: V=Vo×Ki/(Ki+[SMM]), for wild-type; V=Vf+(Vo−Vf)×Ki/(Ki+[SMM]), for mutant.
Enzymatic activity of the wild type and mutant forms of AHAS in the presence of different Pyruvate substrate concentrations was assayed with 6.9 μg/ml of PiAHAS wild-type protein and 11.5 μg/ml of mutant protein (FIG. 5) and the specific activity and Km were calculated.

Where a chain is given by its changes, count along the chain named. Names may count otherwise.

B1: Wild-type: Parietochloris incisa acetohydroxyacid synthase (AHAS), SEQ ID NO: 1, expressed as N-terminal hexahistidine-tagged protein (protein, listed as Parietochloris incisa)
chain: MQGTMRPTAGALQQTVGCWHVPAGIPHAQQALRGRILPEELKQRCSATKPRAARQSAVTAAKLAEGKAGTPSRSLRQQPAAPQQQQQQQDSNELVALREAAKASLSSPAPAEWVDRFGSEPRKGADILVQCLEREGAFRVFAYPGGASMEIHQALTRSGIIRNILCRHEQGEIFAAEGYAKCTGDVGVCIATSGPGATNLVTGLADAMLDSVPLVAITGQVPRKMIGTDGFQETPIVEVTRQITKHNFLVMDLDDLPRIMKEAFYLARTGRPGPVLVDVPKDIQQQLAVPDWDTPMAISGYMSRLPAPPNPSQLAAVVRALKEAKRPTLYVGGGALDSSAELREFVRLTGIPVAQTLMGLGTFPEEDPLALQMLGMHGTVYANYAVNDSDLLLAFGVRFDDRVTGKLEAFASRACIVHIDIDPAEICKNKEAHIPICADLRASLIALNELLRRDPLPEGAFADWRAAIEAKKQEFPMTFPERDDVIIPQRAIQMLYEETNGEAIISTGVGQHQMWAAQWYQYNEPRRWVTSGGLGSMGFGLPSALGAAAVAYDGTDGRPKKVVVDIDGDGSFLMNCQELATAAVEGLETKIMILNNQHLGMVVQWEDRFYKANRAHTYLGHRANEYHTTLDESHIFPDFVMMAKSCGVPGRRVIKPEELRGAIREMLDTPGPFLLDVMVPHVEHVLPMIPGGGSFKDIITKGDGRDEY
modifications: N-terminal hexahistidine tag
Turning to B1, the Km – broadly, the substrate concentration at which the rate is half of its maximum – (37° C., pH 7.6) was 49.4 ± 2.1 mM. Further, the Specific activity (37° C., pH 7.6) was determined as 3.00 ± 0.05 U × mg^−1 and the Specific activity (purified protein) is 3 U/mg.

B2: Mutant: Parietochloris incisa AHAS with Trp605 substituted by Serine (W605S), SEQ ID NO: 2, hexahistidine-tagged (protein, listed as Parietochloris incisa)
chain: B1 chain with W605S
modifications: hexahistidine tag
In the case of B2, for the setting “37° C., pH 7.6”, the Km worked out at 71.7 ± 2.9 mM and the Specific activity turned out to be 1.46 ± 0.03 U × mg^−1. In addition, under “mutant versus wild type”, the “decrease in affinity to the Pyruvate substrate compared to wild type” value turned out to be 2 fold and the “decrease in specific / enzymatic activity compared to wild type” value came out at 2 fold.
